The text below walks through data of the supplement of paper PMC7125110.

B1: glmS ribozyme (parent)
chain: AUAAAAGCGCCAGAACUACAGAAAUGUAGUUGACGAGGAGGAGGUUUAUCGAAUUUUCGGCGGAUGCCUCCAAA

Holding throughout (conditions): with glucosamine-6-phosphate
Data set [1] covers variants of B1. The experiment in a line: self-cleavage kobs at 160 uM GlcN6P; higher = faster cleavage; RNA array. The essentials: (§1)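 Barcoded ribozyme variants, transcribed in situ by E. coli RNA polymerase on sequenced MiSeq chips, were followed via a hybridised Cy3 probe at 37 °C. Glucosamine-6-phosphate ranged from 40 μM to 10 mM in HEPES/KCl/Mg(OAc)2 buffer. kobs came from decay fits to per-tile medians, and kcat and KM from weighted Michaelis–Menten fits.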

Variants of B1 are the subject of data set [2]. The experiment in a line: self-cleavage kobs at 640 uM GlcN6P; higher = faster cleavage; RNA array. The essentials:
as §1

Data set [3] covers variants of B1. The experiment in a line: self-cleavage kobs at 2500 uM GlcN6P; higher = faster cleavage; RNA array. The essentials:
as §1

Data set [4] covers variants of B1. The experiment in a line: self-cleavage kobs at 10000 uM GlcN6P; higher = faster cleavage; RNA array. The method in brief:
as §1

± gives the standard error. This sample holds only a part of the variants without activity.

For C8G G59A C70G, the “self-cleavage kobs at 160 uM GlcN6P” value with glucosamine-6-phosphate [1] was less than 1e-05 s⁻¹.
For A14G A36C G40C G51C, in the data set with glucosamine-6-phosphate [2], the “self-cleavage kobs at 640 uM GlcN6P” value is less than 1e-05 s⁻¹.
The same measure, in the same setting: the result for G7C U69A C70U reads less than 1e-05 s⁻¹.
For C10U A12G U31A A36C C58A, in the data set with glucosamine-6-phosphate [1], the “self-cleavage kobs at 160 uM GlcN6P” value is less than 1e-05 s⁻¹.
As for C11A G13A A39G, the “self-cleavage kobs at 160 uM GlcN6P” value with glucosamine-6-phosphate [1] was less than 1e-05 s⁻¹. Moreover, the “self-cleavage kobs at 640 uM GlcN6P” value with glucosamine-6-phosphate [2] was less than 1e-05 s⁻¹.
A33U G35C G63U: in the data set with glucosamine-6-phosphate [2], the “self-cleavage kobs at 640 uM GlcN6P” value was less than 1e-05 s⁻¹. Moreover, the “self-cleavage kobs at 2500 uM GlcN6P” value with glucosamine-6-phosphate [3] is less than 1e-05 s⁻¹.
As for G43A G44C C67A C70A, the “self-cleavage kobs at 640 uM GlcN6P” value with glucosamine-6-phosphate [2] is less than 1e-05 s⁻¹. Further, the “self-cleavage kobs at 2500 uM GlcN6P” value in the data set with glucosamine-6-phosphate [3] is less than 1e-05 s⁻¹.
With C8A C11A G44A, in the data set with glucosamine-6-phosphate [2], the “self-cleavage kobs at 640 uM GlcN6P” value is less than 1e-05 s⁻¹.
As to A36U A64G C68G, the “self-cleavage kobs at 160 uM GlcN6P” value in the data set with glucosamine-6-phosphate [1] stood at 7.51e-05 ± 3e-05 s⁻¹.
Consider G43C U55A A64U, for which the “self-cleavage kobs at 160 uM GlcN6P” value in the data set with glucosamine-6-phosphate [1] was less than 1e-05 s⁻¹.
Consider A33U U47A G62U A64G C71U, for which the “self-cleavage kobs at 160 uM GlcN6P” value with glucosamine-6-phosphate [1] is less than 1e-05 s⁻¹. Further, the “self-cleavage kobs at 640 uM GlcN6P” value with glucosamine-6-phosphate [2] is less than 1e-05 s⁻¹.
G44A G51U: the “self-cleavage kobs at 160 uM GlcN6P” value with glucosamine-6-phosphate [1] is less than 1e-05 s⁻¹. For the same variant, in the data set with glucosamine-6-phosphate [4], the “self-cleavage kobs at 10000 uM GlcN6P” value was less than 1e-05 s⁻¹.
Take G9C G37A U46A A52U G60A C61A: in the data set with glucosamine-6-phosphate [1], the “self-cleavage kobs at 160 uM GlcN6P” value was less than 1e-05 s⁻¹. Also, the “self-cleavage kobs at 2500 uM GlcN6P” value in the data set with glucosamine-6-phosphate [3] was less than 1e-05 s⁻¹.
Take G9U C10U U54G: the “self-cleavage kobs at 160 uM GlcN6P” value in the data set with glucosamine-6-phosphate [1] was less than 1e-05 s⁻¹.
Turning to C11A A33U G66A, the “self-cleavage kobs at 160 uM GlcN6P” value with glucosamine-6-phosphate [1] was less than 1e-05 s⁻¹. The “self-cleavage kobs at 640 uM GlcN6P” value with glucosamine-6-phosphate [2] was less than 1e-05 s⁻¹. Also, the “self-cleavage kobs at 2500 uM GlcN6P” value with glucosamine-6-phosphate [3] is less than 1e-05 s⁻¹.
On to G41C A52C G60A G63A G66A C68U, for which the “self-cleavage kobs at 160 uM GlcN6P” value with glucosamine-6-phosphate [1] was less than 1e-05 s⁻¹. The “self-cleavage kobs at 640 uM GlcN6P” value with glucosamine-6-phosphate [2] was less than 1e-05 s⁻¹.
G35U C67A: in the data set with glucosamine-6-phosphate [1], the “self-cleavage kobs at 160 uM GlcN6P” value was less than 1e-05 s⁻¹. Besides, in the data set with glucosamine-6-phosphate [2], the “self-cleavage kobs at 640 uM GlcN6P” value was less than 1e-05 s⁻¹. For the same variant, the “self-cleavage kobs at 2500 uM GlcN6P” value with glucosamine-6-phosphate [3] is less than 1e-05 s⁻¹.
Turning to A14C U54C U57A G60A C70U, the “self-cleavage kobs at 160 uM GlcN6P” value in the data set with glucosamine-6-phosphate [1] was less than 1e-05 s⁻¹. Also, the “self-cleavage kobs at 640 uM GlcN6P” value with glucosamine-6-phosphate [2] was less than 1e-05 s⁻¹. The “self-cleavage kobs at 2500 uM GlcN6P” value with glucosamine-6-phosphate [3] is less than 1e-05 s⁻¹.
Take G38A A53C: the “self-cleavage kobs at 160 uM GlcN6P” value with glucosamine-6-phosphate [1] is less than 1e-05 s⁻¹.
For A33C G44U, the “self-cleavage kobs at 160 uM GlcN6P” value in the data set with glucosamine-6-phosphate [1] was less than 1e-05 s⁻¹. Also, the “self-cleavage kobs at 640 uM GlcN6P” value with glucosamine-6-phosphate [2] is less than 1e-05 s⁻¹. The “self-cleavage kobs at 2500 uM GlcN6P” value with glucosamine-6-phosphate [3] was less than 1e-05 s⁻¹. In addition, the “self-cleavage kobs at 10000 uM GlcN6P” value with glucosamine-6-phosphate [4] is less than 1e-05 s⁻¹.
As to G40C A53U C70U, the “self-cleavage kobs at 160 uM GlcN6P” value in the data set with glucosamine-6-phosphate [1] was determined as 9.81e-05 ± 3.6e-05 s⁻¹. The “self-cleavage kobs at 640 uM GlcN6P” value with glucosamine-6-phosphate [2] was found to be 9.65e-05 ± 2.1e-05 s⁻¹. Further, the “self-cleavage kobs at 2500 uM GlcN6P” value with glucosamine-6-phosphate [3] came to 0.000268 ± 5.4e-05 s⁻¹.
In the same order, the values of G7U C8G G51C are less than 1e-05 s⁻¹, less than 1e-05 s⁻¹ and less than 1e-05 s⁻¹.
Turning to A15G U46G G66A C68U, the “self-cleavage kobs at 160 uM GlcN6P” value in the data set with glucosamine-6-phosphate [1] was 6.94e-05 ± 1.7e-05 s⁻¹. The “self-cleavage kobs at 640 uM GlcN6P” value with glucosamine-6-phosphate [2] stood at 0.000307 ± 0.00014 s⁻¹. The “self-cleavage kobs at 2500 uM GlcN6P” value with glucosamine-6-phosphate [3] turned out to be 0.00078 ± 0.00029 s⁻¹.
For A6G C8A A48C, the “self-cleavage kobs at 160 uM GlcN6P” value with glucosamine-6-phosphate [1] is less than 1e-05 s⁻¹.
For the variant C11A A39C U49C, in the data set with glucosamine-6-phosphate [1], the “self-cleavage kobs at 160 uM GlcN6P” value is less than 1e-05 s⁻¹. The “self-cleavage kobs at 2500 uM GlcN6P” value with glucosamine-6-phosphate [3] was less than 1e-05 s⁻¹.
On to G41U G44C U54C, for which, in the data set with glucosamine-6-phosphate [1], the “self-cleavage kobs at 160 uM GlcN6P” value is less than 1e-05 s⁻¹. In addition, in the data set with glucosamine-6-phosphate [2], the “self-cleavage kobs at 640 uM GlcN6P” value was less than 1e-05 s⁻¹. The “self-cleavage kobs at 2500 uM GlcN6P” value with glucosamine-6-phosphate [3] is less than 1e-05 s⁻¹.
On to G38U G43A C58G U65C, for which the “self-cleavage kobs at 160 uM GlcN6P” value in the data set with glucosamine-6-phosphate [1] is less than 1e-05 s⁻¹.
Regarding C10A U31C U57A A64U, the “self-cleavage kobs at 160 uM GlcN6P” value with glucosamine-6-phosphate [1] was less than 1e-05 s⁻¹.
As for G9C U45A U47C C68G, the “self-cleavage kobs at 160 uM GlcN6P” value with glucosamine-6-phosphate [1] is less than 1e-05 s⁻¹. The “self-cleavage kobs at 640 uM GlcN6P” value in the data set with glucosamine-6-phosphate [2] is less than 1e-05 s⁻¹. The “self-cleavage kobs at 2500 uM GlcN6P” value with glucosamine-6-phosphate [3] is less than 1e-05 s⁻¹.
Take C11U C61A G63C: the “self-cleavage kobs at 160 uM GlcN6P” value in the data set with glucosamine-6-phosphate [1] was less than 1e-05 s⁻¹. The “self-cleavage kobs at 640 uM GlcN6P” value with glucosamine-6-phosphate [2] was less than 1e-05 s⁻¹.
Consider G9C C50G, for which the “self-cleavage kobs at 160 uM GlcN6P” value in the data set with glucosamine-6-phosphate [1] was found to be 0.00045 ± 0.00018 s⁻¹.
Consider C10A U57A A64G C67G C71A, for which, in the data set with glucosamine-6-phosphate [1], the “self-cleavage kobs at 160 uM GlcN6P” value was determined as 0.000245 ± 7.6e-05 s⁻¹. Further, the “self-cleavage kobs at 2500 uM GlcN6P” value with glucosamine-6-phosphate [3] came to 8.51e-05 ± 3.3e-05 s⁻¹.
